Results from PMC10145556.

Target: T1, LHRH receptor (LHRH-R) (human (endogenous in MCF-7 and Hs68)) (UniProt P30968)
T1 sequence: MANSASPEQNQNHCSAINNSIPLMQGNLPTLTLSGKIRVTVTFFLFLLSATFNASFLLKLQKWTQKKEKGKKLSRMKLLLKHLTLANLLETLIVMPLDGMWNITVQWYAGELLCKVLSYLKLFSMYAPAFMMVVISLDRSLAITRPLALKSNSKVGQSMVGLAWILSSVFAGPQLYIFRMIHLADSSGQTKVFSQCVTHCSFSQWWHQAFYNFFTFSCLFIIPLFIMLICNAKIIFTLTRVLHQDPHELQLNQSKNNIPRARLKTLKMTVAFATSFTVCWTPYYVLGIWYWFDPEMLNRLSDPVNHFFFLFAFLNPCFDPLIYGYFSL

B1: LHRH-BinBC (luteinizing hormone-releasing hormone peptide fused through a GSG linker to the N-terminus of the pore-forming C-terminal domain of BinB) (protein)
chain: QHWSYGLRPGGSGIPQLPQTSLLENIPEPTSLDDSGVLPKDAVRAVKGSALLPCIIVHDPNLNNSDKMKFNTYYLLEYKEYWHQLWSQIIPAHQTVKIQERTGISEVVQNSMIEDLNMYIGADFGMLFYFRSSGFKEQITRGLNRPLSQTTTQLGERVEEMEYYNSNDLDVRYVKYALAREFTLKRVNGEIVKNWVAVDYRLAGIQSYPNAPITNPLTLTKHTIIRCENSYDGHIFKTPLIFKNGEVIVKTNEELIPKINQ
IC50 of inhibition of MCF-7 cell proliferation (MTT assay, 48 h, 1-16 μM LHRH-BinBC): 11 µM
